Test results published in patent publication US20090098588A1.
Blank lines part the entries; values can stand above or below the molecule they belong to.

What was measured:
Test in all cases: cell-based or functional assay
MC3R fused to PK2 = MC3R fused to PK2 (UniProt P41968)
CCR6 fused to PK1 = biological target: T1, CCR6 fused to PK1 (UniProt P51684)
T1 sequence (looked up): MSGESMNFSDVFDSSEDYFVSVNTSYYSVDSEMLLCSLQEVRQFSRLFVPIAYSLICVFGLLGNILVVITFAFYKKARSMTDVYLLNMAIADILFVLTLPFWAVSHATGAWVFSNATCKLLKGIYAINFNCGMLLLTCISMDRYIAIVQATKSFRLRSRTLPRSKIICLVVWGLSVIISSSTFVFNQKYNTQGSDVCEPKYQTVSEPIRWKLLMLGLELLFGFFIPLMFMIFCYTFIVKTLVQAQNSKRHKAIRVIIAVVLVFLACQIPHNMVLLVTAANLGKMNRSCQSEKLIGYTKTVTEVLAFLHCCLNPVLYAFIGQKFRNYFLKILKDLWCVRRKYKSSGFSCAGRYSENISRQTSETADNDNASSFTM

CCR6 fused to PK2 = biological target: T2, CCR6 fused to PK2 (UniProt P51684)
T2 sequence (P51684 whole entry, species assumed, looked up): T1 sequence (looked up)

SALPR fused to PK2 = SALPR fused to PK2 (UniProt Q9NSD7)
PTHR2 fused to PK2 = PTHR2 fused to PK2 (UniProt P49190)
SSTR1 fused to PK1 = SSTR1 fused to PK1 (UniProt P30872)
CCR4 fused to PK1 = biological target: T3, CCR4 fused to PK1 (UniProt P51679)
T3 sequence (looked up): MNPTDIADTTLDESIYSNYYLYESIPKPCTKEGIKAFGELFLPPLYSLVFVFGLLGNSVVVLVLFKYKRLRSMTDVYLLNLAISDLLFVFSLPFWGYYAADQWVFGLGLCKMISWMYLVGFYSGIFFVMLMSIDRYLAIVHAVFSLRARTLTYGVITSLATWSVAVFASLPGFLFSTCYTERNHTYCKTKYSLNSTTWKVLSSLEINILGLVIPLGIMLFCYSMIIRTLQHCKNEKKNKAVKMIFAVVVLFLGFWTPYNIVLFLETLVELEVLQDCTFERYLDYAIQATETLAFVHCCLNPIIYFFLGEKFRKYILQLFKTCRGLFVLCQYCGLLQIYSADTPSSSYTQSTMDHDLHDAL

CCR4 fused to PK2 = biological target: T4, CCR4 fused to PK2 (UniProt P51679)
T4 sequence (P51679 whole entry, species assumed, looked up): T3 sequence (looked up)

SSTR1 fused to PK2 = SSTR1 fused to PK2 (UniProt P30872)
SSTR4 fused to PK1 = SSTR4 fused to PK1 (UniProt P31391)
SSTR4 fused to PK2 = SSTR4 fused to PK2 (UniProt P31391)
CRHR2 fused to PK1 = biological target: T5, CRHR2 fused to PK1 (UniProt Q13324)
T5 sequence (looked up): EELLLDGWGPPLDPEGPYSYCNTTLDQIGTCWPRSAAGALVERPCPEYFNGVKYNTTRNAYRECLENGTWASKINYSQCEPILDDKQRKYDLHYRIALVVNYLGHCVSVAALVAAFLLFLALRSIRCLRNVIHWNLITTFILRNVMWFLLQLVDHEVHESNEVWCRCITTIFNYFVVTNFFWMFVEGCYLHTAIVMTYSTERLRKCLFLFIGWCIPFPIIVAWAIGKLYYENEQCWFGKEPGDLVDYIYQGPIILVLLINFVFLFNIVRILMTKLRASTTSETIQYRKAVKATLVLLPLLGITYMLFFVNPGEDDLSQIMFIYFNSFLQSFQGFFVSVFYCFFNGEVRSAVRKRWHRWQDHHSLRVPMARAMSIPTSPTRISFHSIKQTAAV

CRHR2 fused to PK2 = biological target: T6, CRHR2 fused to PK2 (UniProt Q13324)
T6 sequence (Q13324 whole entry, species assumed, looked up): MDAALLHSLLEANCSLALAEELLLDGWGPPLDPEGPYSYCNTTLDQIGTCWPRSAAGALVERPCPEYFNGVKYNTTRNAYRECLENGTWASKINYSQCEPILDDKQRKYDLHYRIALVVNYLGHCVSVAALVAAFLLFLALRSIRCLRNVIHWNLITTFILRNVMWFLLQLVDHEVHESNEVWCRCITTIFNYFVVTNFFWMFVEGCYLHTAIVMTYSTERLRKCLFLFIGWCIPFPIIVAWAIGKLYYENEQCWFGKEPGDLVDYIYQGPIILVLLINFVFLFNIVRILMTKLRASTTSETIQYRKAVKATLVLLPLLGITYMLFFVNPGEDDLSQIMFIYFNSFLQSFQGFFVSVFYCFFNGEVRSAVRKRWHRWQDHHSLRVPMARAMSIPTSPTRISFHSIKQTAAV

Chain of PTHR2 fused to PK2 (P49190 whole entry, the tested form may be a part): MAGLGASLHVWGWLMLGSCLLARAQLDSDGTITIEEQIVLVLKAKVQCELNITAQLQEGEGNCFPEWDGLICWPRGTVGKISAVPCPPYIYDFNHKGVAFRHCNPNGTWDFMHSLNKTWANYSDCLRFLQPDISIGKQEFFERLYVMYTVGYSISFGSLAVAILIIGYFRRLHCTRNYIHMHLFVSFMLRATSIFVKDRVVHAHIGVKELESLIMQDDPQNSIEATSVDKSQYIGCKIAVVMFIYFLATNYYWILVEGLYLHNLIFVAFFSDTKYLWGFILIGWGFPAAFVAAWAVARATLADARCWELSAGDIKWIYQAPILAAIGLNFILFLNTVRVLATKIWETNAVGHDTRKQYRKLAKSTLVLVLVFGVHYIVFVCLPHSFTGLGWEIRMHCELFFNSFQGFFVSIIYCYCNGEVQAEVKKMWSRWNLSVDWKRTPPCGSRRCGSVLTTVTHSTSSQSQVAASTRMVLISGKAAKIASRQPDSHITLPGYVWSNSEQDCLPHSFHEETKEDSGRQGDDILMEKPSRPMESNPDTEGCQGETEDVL
Chain of SSTR1 fused to PK1 (P30872 whole entry, the tested form may be a part): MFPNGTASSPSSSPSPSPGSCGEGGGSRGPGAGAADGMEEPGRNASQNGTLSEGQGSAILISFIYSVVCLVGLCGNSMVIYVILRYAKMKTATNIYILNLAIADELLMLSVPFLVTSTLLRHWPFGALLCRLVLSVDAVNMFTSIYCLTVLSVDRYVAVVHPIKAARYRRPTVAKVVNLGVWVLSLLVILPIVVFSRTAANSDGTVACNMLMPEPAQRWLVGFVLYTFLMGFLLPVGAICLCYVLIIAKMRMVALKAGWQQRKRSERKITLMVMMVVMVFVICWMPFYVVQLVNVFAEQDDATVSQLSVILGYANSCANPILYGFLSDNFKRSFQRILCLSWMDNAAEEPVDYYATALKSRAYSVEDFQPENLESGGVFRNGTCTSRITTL
Chain of SALPR fused to PK2 (Q9NSD7 whole entry, the tested form may be a part): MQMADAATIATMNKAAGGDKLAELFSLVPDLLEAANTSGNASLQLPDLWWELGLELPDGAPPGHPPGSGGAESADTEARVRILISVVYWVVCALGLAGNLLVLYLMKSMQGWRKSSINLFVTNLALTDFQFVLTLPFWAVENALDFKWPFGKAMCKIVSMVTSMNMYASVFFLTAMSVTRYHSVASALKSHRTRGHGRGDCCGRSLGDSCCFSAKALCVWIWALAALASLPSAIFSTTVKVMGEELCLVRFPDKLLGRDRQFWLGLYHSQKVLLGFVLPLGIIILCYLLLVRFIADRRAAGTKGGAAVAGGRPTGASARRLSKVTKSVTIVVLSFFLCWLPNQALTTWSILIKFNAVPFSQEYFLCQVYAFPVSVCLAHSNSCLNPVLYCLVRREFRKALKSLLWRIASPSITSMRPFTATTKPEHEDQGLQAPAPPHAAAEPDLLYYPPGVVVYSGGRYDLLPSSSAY
Chain of SSTR4 fused to PK2 (P31391 whole entry, the tested form may be a part): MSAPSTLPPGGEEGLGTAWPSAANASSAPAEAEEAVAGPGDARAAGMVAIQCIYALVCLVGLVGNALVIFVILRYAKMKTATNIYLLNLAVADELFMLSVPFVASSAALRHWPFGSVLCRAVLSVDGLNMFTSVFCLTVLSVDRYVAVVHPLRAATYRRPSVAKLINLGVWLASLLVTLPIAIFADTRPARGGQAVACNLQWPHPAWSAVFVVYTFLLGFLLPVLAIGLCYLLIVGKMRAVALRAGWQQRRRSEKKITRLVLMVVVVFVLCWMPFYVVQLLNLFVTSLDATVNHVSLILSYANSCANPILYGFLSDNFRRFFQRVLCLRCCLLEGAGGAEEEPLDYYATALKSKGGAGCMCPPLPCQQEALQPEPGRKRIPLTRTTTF
Chain of SSTR4 fused to PK1 (P31391 whole entry, the tested form may be a part): as above
Chain of MC3R fused to PK2 (P41968 whole entry, the tested form may be a part): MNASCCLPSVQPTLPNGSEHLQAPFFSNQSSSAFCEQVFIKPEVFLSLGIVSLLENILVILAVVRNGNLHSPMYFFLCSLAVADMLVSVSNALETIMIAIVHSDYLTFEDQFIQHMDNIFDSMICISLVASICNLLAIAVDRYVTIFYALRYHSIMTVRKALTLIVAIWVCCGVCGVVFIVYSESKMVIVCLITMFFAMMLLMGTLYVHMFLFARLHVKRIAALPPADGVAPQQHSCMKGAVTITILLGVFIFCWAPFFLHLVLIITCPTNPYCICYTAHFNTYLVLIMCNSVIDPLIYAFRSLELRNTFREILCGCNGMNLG
Chain of SSTR1 fused to PK2 (P30872 whole entry, the tested form may be a part): as the sequence (P30872 whole entry, the tested form may be a part) above

Fold induct. (arrestin recruitment, beta-galactosidase EFC, saturating ligand) (MC3R fused to PK2): 3.2 fold
Molecule: aMSH (from UniProt P01189 138-150) (peptide)

Fold induct. (arrestin recruitment, beta-galactosidase EFC, saturating ligand) (CCR6 fused to PK1): 1.4 fold
Fold induct. (arrestin recruitment, beta-galactosidase EFC, saturating ligand) (CCR6 fused to PK2): 6.5 fold
Molecule: CCL20 (from UniProt P78556 27-96) (ligand)

Fold induct. (arrestin recruitment, beta-galactosidase EFC, saturating ligand) (SSTR1 fused to PK1): 1 fold
Molecule: TYR-SRIF14 (peptide)

Fold induct. (arrestin recruitment, beta-galactosidase EFC, saturating ligand) (CCR4 fused to PK1): 18.9 fold
Fold induct. (arrestin recruitment, beta-galactosidase EFC, saturating ligand) (CCR4 fused to PK2): 3 fold
B1: CCL22 (ligand, UniProt O00626 25-93, looked up)
chain: GPYGANMEDSVCCRDYVRYRLPLRVVKHFYWTSDSCPRPGVVLLTFRDKEICADPRVPWVKMILNKLSQ

Fold induct. (arrestin recruitment, beta-galactosidase EFC, saturating ligand) (PTHR2 fused to PK2): 2.8 fold
Molecule: SLALADDAAFRERARLLAALERRHWLNSYMHKLLVLDAP (peptide, UniProt Q96A98 62-100, looked up) [TIP39]

Second part, the molecule before the results:

Molecule: Relaxin-3 (from UniProt Q8WXF3 26-142) (ligand)
Fold induct. (arrestin recruitment, beta-galactosidase EFC, saturating ligand) (SALPR fused to PK2): 1.8 fold

Molecule: PTH (1-34) (from UniProt P01270 32-65) (peptide)
Fold induct. (arrestin recruitment, beta-galactosidase EFC, saturating ligand) (PTHR2 fused to PK2): 72.9 fold

Molecule: SANSNPAMAPRERKAGCKNFFWKTFTSC (peptide, UniProt P61278 89-116, looked up) [Somatostatin-28]
Fold induct. (arrestin recruitment, beta-galactosidase EFC, saturating ligand) (SSTR1 fused to PK1): 1.2 fold
Fold induct. (arrestin recruitment, beta-galactosidase EFC, saturating ligand) (SSTR1 fused to PK2): 1.3 fold
Fold induct. (arrestin recruitment, beta-galactosidase EFC, saturating ligand) (SSTR4 fused to PK1): 1.3 fold
Fold induct. (arrestin recruitment, beta-galactosidase EFC, saturating ligand) (SSTR4 fused to PK2): 1.6 fold

Molecule: QGPPISIDLSLELLRKMIEIEKQEKEKQQAANNRLLLDTI (peptide, UniProt P01144 1-40, looked up) [Sauvagine]
Fold induct. (arrestin recruitment, beta-galactosidase EFC, saturating ligand) (CRHR2 fused to PK1): 13.1 fold
Fold induct. (arrestin recruitment, beta-galactosidase EFC, saturating ligand) (CRHR2 fused to PK2): 17.4 fold
